Assay results taken from patent US20260027179A1 (UNIVERSITY OF BRITISH COLUMBIA, published 2026).

Molecular target: T1, Purified recombinant human α-synuclein (N-terminal histidine tagged, Sigma, S7820-500UG) (human, UniProt P37840 1-140)
T1 construct: also called immobilized α-synuclein; not shown: N-terminal histidine tag
Assay: Biacore 3000 SPR, α-synuclein immobilized on CM5 chip, peptide 0.20-12.50 µM injected

B1: Tat-βsyn-degron peptide (peptide)
peptide: YGRKKRRQRRRRTKSGVYLVGRRRG
notes: Chemically synthesized by GL Biochem; also called α-synuclein targeting peptide
- binding result: binds
